According to US20200190143A1:
No end group written: not given here.

Tests used:
[1] = target: melanocortin receptor on melanocytes; test: interference with alpha-MSH binding to melanocytes as in Example 4-1; peptide density 10 peptides/µm^2
[2] = target: melanocortin receptor on melanocytes; test: interference with alpha-MSH binding to melanocytes as in Example 4-1; peptide density 2 peptides/µm^2; reference set to 10
[3] = target: melanocortin receptor on melanocytes; test: flow cytometry (FACS), fluorescence immunoassay, on melanocytes
[4] = target: melanocortin receptor on melanocytes; test: binding of alpha-MSH to melanocytes after treatment with 10 µM capsule 2; competitor alpha-MSH
[5] = target: melanocortin receptor on melanocytes; test: interference with alpha-MSH binding to melanocytes as in Example 4-1; peptide density 0.05 peptides/µm^2
[6] = target: fibroblast growth factor receptor on fibroblasts; test: binding to fibroblasts as in Example 3-1; peptide density 0.05 peptides/µm^2
[7] = target: fibroblast growth factor receptor on fibroblasts; test: binding to fibroblasts as in Example 3-1; peptide density 2 peptides/µm^2; reference set to 10
[8] = target: fibroblast growth factor receptor on fibroblasts; test: capsule and fibroblasts cultured together at 4° C. for 1 hour
[9] = target: fibroblast growth factor receptor on fibroblasts; test: flow cytometry (FACS), fluorescence immunoassay, on fibroblasts
[10] = target: fibroblast growth factor receptor on fibroblasts; test: binding to fibroblasts as in Example 3-1; peptide density 0.1 peptides/µm^2
[11] = target: melanocortin receptor on melanocytes; test: interference with alpha-MSH binding to melanocytes as in Example 4-1; peptide density 10.5 peptides/µm^2
[12] = target: fibroblast growth factor receptor on fibroblasts; test: binding to fibroblasts as in Example 3-1; peptide density 10.5 peptides/µm^2
[13] = target: fibroblast growth factor receptor on fibroblasts; test: binding to fibroblasts as in Example 3-1; peptide density 10 peptides/µm^2
[14] = target: melanocortin receptor on melanocytes; test: interference with alpha-MSH binding to melanocytes as in Example 4-1; peptide density 0.1 peptides/µm^2
[15] = target: melanocortin receptor on melanocytes; test: interference with alpha-MSH binding to melanocytes as in Example 4-1; peptide density 7 peptides/µm^2
[16] = target: integrin receptor (beta-1 family) on keratinocytes; test: flow cytometry (FACS), fluorescence immunoassay, on keratinocytes
[17] = target: fibroblast growth factor receptor on fibroblasts; test: binding to fibroblasts as in Example 3-1; peptide density 7 peptides/µm^2

B1: capsule 2-5 (peptide)
peptide: EGHKIFPSWY
modifications: not fully specified (N-terminus); printed as Glu-Gly-His-Lys-Ile-Phe-Pro-Ser-Trp-Tyr; also: N-terminus linked to microcapsule surface carboxyl (EDAC/NHS)
Which binding interference of melanocyte and alpha-MSH, relative (capsule 2-3 = 10) (relative to capsule 2-3 = 10) [1] does the source give for B1 here?
Its binding interference of melanocyte and alpha-MSH, relative (capsule 2-3 = 10) (relative to capsule 2-3 = 10) is 7.

B2: capsule 2 (microcapsule to which the peptide of SEQ ID NO: 2 was linked) (peptide)
peptide: EGHKIFPSWY
modifications: not fully specified (N-terminus); printed as Glu-Gly-His-Lys-Ile-Phe-Pro-Ser-Trp-Tyr; also: N-terminus amide-linked to microcapsule surface carboxyl (EDAC/NHS)
For B2, which binding interference of melanocyte and alpha-MSH, relative (capsule 2-3 = 10) (relative to capsule 2-3 = 10) [2] is on record?
Its binding interference of melanocyte and alpha-MSH, relative (capsule 2-3 = 10) (relative to capsule 2-3 = 10) is 10.

And the binding affinity (binding rate) [3]?
The binding affinity (binding rate) was 70%.

What about the percent reduction of the binding of melanocyte and alpha-MSH [4] of the same binder?
Its percent reduction of the binding of melanocyte and alpha-MSH is 95%.

B3: capsule 2-1 (peptide)
peptide: EGHKIFPSWY
modifications: not fully specified (N-terminus); printed as Glu-Gly-His-Lys-Ile-Phe-Pro-Ser-Trp-Tyr; also: N-terminus amide-linked to microcapsule surface carboxyl (EDAC/NHS)
For B3, which binding interference of melanocyte and alpha-MSH, relative (capsule 2-3 = 10) (relative to capsule 2-3 = 10) [5] is on record?
The binding interference of melanocyte and alpha-MSH, relative (capsule 2-3 = 10) (relative to capsule 2-3 = 10) was 3.

B4: capsule 1-1 (peptide)
peptide: AKST
modifications: not fully specified (N-terminus); printed as Ala-Lys-Ser-Thr; also: N-terminus amide-linked to microcapsule surface carboxyl (EDAC/NHS)
B4 was tested. Which binding affinity to fibroblasts, relative (capsule 1-3 = 10) (relative to capsule 1-3 = 10) [6] did it give?
Its binding affinity to fibroblasts, relative (capsule 1-3 = 10) (relative to capsule 1-3 = 10) is 2.

B5: capsule 1 (microcapsule to which the peptide of SEQ ID NO: 1 was linked) (peptide)
peptide: AKST
modifications: not fully specified (N-terminus); printed as Ala-Lys-Ser-Thr; also: N-terminus amide-linked to microcapsule surface carboxyl (EDAC/NHS)
With B5 as the binder, how does the binding affinity to fibroblasts, relative (capsule 1-3 = 10) (relative to capsule 1-3 = 10) [7] read?
The binding affinity to fibroblasts, relative (capsule 1-3 = 10) (relative to capsule 1-3 = 10) was 10.

And the fold binding affinity against the microcapsule to which the peptide was not linked [8]?
The fold binding affinity against the microcapsule to which the peptide was not linked was 4 times.

And the binding rate [9]?
Its binding rate is 75%.

B6: capsule 1-2 (peptide)
peptide: AKST
modifications: not fully specified (N-terminus); printed as Ala-Lys-Ser-Thr; also: N-terminus amide-linked to microcapsule surface carboxyl (EDAC/NHS)
For B6, which binding affinity to fibroblasts, relative (capsule 1-3 = 10) (relative to capsule 1-3 = 10) [10] is on record?
Its binding affinity to fibroblasts, relative (capsule 1-3 = 10) (relative to capsule 1-3 = 10) is 7.

B7: capsule 2-6 (peptide)
peptide: EGHKIFPSWY
modifications: not fully specified (N-terminus); printed as Glu-Gly-His-Lys-Ile-Phe-Pro-Ser-Trp-Tyr; also: N-terminus linked to microcapsule surface carboxyl (EDAC/NHS)
For B7, which binding interference of melanocyte and alpha-MSH, relative (capsule 2-3 = 10) (relative to capsule 2-3 = 10) [11] is on record?
The binding interference of melanocyte and alpha-MSH, relative (capsule 2-3 = 10) (relative to capsule 2-3 = 10) was 3.

B8: capsule 1-6 (peptide)
peptide: AKST
modifications: not fully specified (N-terminus); printed as Ala-Lys-Ser-Thr; also: N-terminus amide-linked to microcapsule surface carboxyl (EDAC/NHS)
B8 was tested. Which binding affinity to fibroblasts, relative (capsule 1-3 = 10) (relative to capsule 1-3 = 10) [12] did it give?
Its binding affinity to fibroblasts, relative (capsule 1-3 = 10) (relative to capsule 1-3 = 10) is 3.5.

B9: capsule 1-5 (peptide)
peptide: AKST
modifications: not fully specified (N-terminus); printed as Ala-Lys-Ser-Thr; also: N-terminus amide-linked to microcapsule surface carboxyl (EDAC/NHS)
How did the binding affinity to fibroblasts, relative (capsule 1-3 = 10) (relative to capsule 1-3 = 10) [13] turn out when B9 was run?
The binding affinity to fibroblasts, relative (capsule 1-3 = 10) (relative to capsule 1-3 = 10) was 7.5.

B10: capsule 2-2 (peptide)
peptide: EGHKIFPSWY
modifications: not fully specified (N-terminus); printed as Glu-Gly-His-Lys-Ile-Phe-Pro-Ser-Trp-Tyr; also: N-terminus amide-linked to microcapsule surface carboxyl (EDAC/NHS)
With B10 as the binder, how does the binding interference of melanocyte and alpha-MSH, relative (capsule 2-3 = 10) (relative to capsule 2-3 = 10) [14] read?
Its binding interference of melanocyte and alpha-MSH, relative (capsule 2-3 = 10) (relative to capsule 2-3 = 10) is 7.5.

B11: capsule 2-4 (peptide)
peptide: EGHKIFPSWY
modifications: not fully specified (N-terminus); printed as Glu-Gly-His-Lys-Ile-Phe-Pro-Ser-Trp-Tyr; also: N-terminus linked to microcapsule surface carboxyl (EDAC/NHS)
B11 was tested. Which binding interference of melanocyte and alpha-MSH, relative (capsule 2-3 = 10) (relative to capsule 2-3 = 10) [15] did it give?
Its binding interference of melanocyte and alpha-MSH, relative (capsule 2-3 = 10) (relative to capsule 2-3 = 10) is 10.

B12: capsule 3 (microcapsule to which the peptide of SEQ ID NO: 3 was linked) (peptide)
peptide: ADGSP
modifications: not fully specified (N-terminus); printed as Ala-Asp-Gly-Ser-Pro; also: N-terminus linked to microcapsule surface carboxyl (EDAC/NHS)
Which binding rate [16] does the source give for B12 here?
Its binding rate is 85%.

B13: capsule 1-4 (peptide)
peptide: AKST
modifications: not fully specified (N-terminus); printed as Ala-Lys-Ser-Thr; also: N-terminus amide-linked to microcapsule surface carboxyl (EDAC/NHS)
Which binding affinity to fibroblasts, relative (capsule 1-3 = 10) (relative to capsule 1-3 = 10) [17] does the source give for B13 here?
Its binding affinity to fibroblasts, relative (capsule 1-3 = 10) (relative to capsule 1-3 = 10) is 9.5.
